Where two headings read alike, the source gives them in different places.
How the values were obtained:
[1] = Stability in mouse serum at 37 °C (iTLC); assay type: in vitro ADME
Method: Stability in PBS was determined by incubating 20 µL of the labeled compounds (∼11 MBq) in PBS (80 µL) at 37 °C. Radiochemical purity was determined by iTLC at 30 min, 1 h, 2 h and 4 h. Stability in the serum was carried out by adding 70 µL of the labeled compound (∼35 MBq) to 330 µL of mouse serum (Merck, Haarlerbergweg, The Netherlands). The mixture was incubated at 37 °C. At different time points (30 min, 1 h, 2 h and 4 h), an aliquot of the mixture (50 µL) was added to 50 µL ACN. The vial was vortexed and centrifuged at 10,000 rpm for 20 min and the supernatant was analyzed by iTLC.

[2] = Ex vivo biodistribution after SPECT/CT scanning; assay type: in vivo, mouse; details: mouse, iv, ~3 h p.i.; for tissue to tissue ratio: male, Balb/c nu/nu, total radioactivity, radioactivity; for tissue uptake at 3 h: PC-3 xenograft mice, i.v.
Method: Seven-week-old male Balb/c nu/nu-specific and opportunistic pathogen-free (SOPF) mice (Janvier Labs, Le Genest-Saint-Isle, France) were housed in individually ventilated cages, with 4 mice per cage. Upon arrival, mice were acclimated for 1 week, with access to food and water ad libitum. Mice were subcutaneously inoculated on the right shoulder with PC-3 cells (5 × 10^6 cells suspended in 100 µL of 1/3 Matrigel (Corning Inc., Corning, NY, USA) and 2/3 Hank’s balanced salt solution (Gibco). PC-3 xenografts were allowed to grow for 3 weeks. Tumor sizes were 391 ± 173 mm^3 at the start of the studies. All animal experiments were approved by the Animal Welfare Committee of the Erasmus MC and were conducted in agreement with institutional guidelines (license number: AVD101002017867, 28 September 2017).
To determine the biodistribution of the compounds after imaging (~3 h p.i.), blood was collected via cardiac puncture under isoflurane/O2 anesthesia, after which the mice were sacrificed. The tumor and organs of interest (prostate, pancreas, spleen, liver, GI tract (stomach, small intestine, cecum, large intestine), kidneys, lungs, heart, muscle, bone, and brain) were excised, washed in PBS and blotted dry. The stomach, intestines and cecum were emptied of their contents. The tumor was cut in half; one half was fresh-frozen for further analysis and the other half was collected for ex vivo optical imaging and radioactivity measurements. After imaging, the blood, tumor, and relevant organs were weighed and measured in a γ-counter. To determine the total injected radioactivity per animal, samples of the injected solutions were measured as well. The percentage of injected dose per gram (%ID/g) was determined for each tissue sample and corrected for both the injected volume and %ID present at the injection site (the tail). Because the low weight of the prostate limited accurate organ weight measurements, the average prostate weight of all animals was used.

Q: What does the source list for `CC(C)CC(CC(C)C)NC(=O)[C@H](Cc1c[nH]cn1)NC(=O)CNC(=O)[C@@H](NC(=O)[C@H](C)NC(=O)[C@H](Cc1c[nH]c2ccccc12)NC(=O)[C@H](CCC(N)=O)NC(=O)[C@@H](Cc1ccccc1)NC(=O)COCC(=O)Nc1ccc(CNC(=O)[C@H](CCCCNC(=O)CCOCCOCCOCCOCCNC(=O)OC2CCCC3C=NN=C(c4ccc(CNC(=O)CCCCC[N+]5=C(/C=C/C=C/C=C6N(C)c7ccc(S(=O)(=O)O)cc7C6(C)C)C(C)(C)c6cc(S(=O)(=O)[O-])ccc65)cc4)C3CC2)NC(=O)CN2CCN(CC(=O)O)CCN(CC(=O)O)CCN(CC(=O)O)CC2)cc1)C(C)C` (stereo partly drawn) [[^111In]In-12, metal not drawn]?
A: Stability in Mouse Serum (%) 30 min ([1]; intact labeled ligand after incubation at 37 °C in mouse serum, 30 min, n = 1): 96.3%; Stability in Mouse Serum (%) 1 h ([1]; intact labeled ligand after incubation at 37 °C in mouse serum, 1 h, n = 1): 96.4%; Stability in Mouse Serum (%) 2 h ([1]; intact labeled ligand after incubation at 37 °C in mouse serum, 2 h, n = 1): 96.5%; Stability in Mouse Serum (%) 4 h ([1]; intact labeled ligand after incubation at 37 °C in mouse serum, 4 h, n = 1): 96.5%; Protein-Bound Fraction at 4 h (%) ([1]; mouse serum, 4 h): 7.0%; tissue to tissue ratio ([2]; tumor and blood, non-blocked, n = 3, read-out: Tumor-to-blood ratio): 1.09 ± 0.15; tissue to tissue ratio ([2]; tumor and kidney, blocked with 150 nmol unlabeled NeoB, n = 1, read-out: Tumor-to-kidney ratio): 0.16; tissue to tissue ratio ([2]; tumor and kidney, non-blocked, n = 3, read-out: Tumor-to-kidney ratio): 0.34 ± 0.05; tissue to tissue ratio ([2]; tumor and liver, blocked with 150 nmol unlabeled NeoB, n = 1, read-out: Tumor-to-liver ratio): 0.14; tissue to tissue ratio ([2]; tumor and liver, non-blocked, n = 3, read-out: Tumor-to-liver ratio): 0.55 ± 0.04; tissue to tissue ratio ([2]; tumor and muscle, blocked with 150 nmol unlabeled NeoB, n = 1, read-out: Tumor-to-muscle ratio): 2.62; tissue to tissue ratio ([2]; tumor and muscle, non-blocked, n = 3, read-out: Tumor-to-muscle ratio): 9.04 ± 1.74; tissue to tissue ratio ([2]; tumor and pancreas, blocked with 150 nmol unlabeled NeoB, n = 1, read-out: Tumor-to-pancreas ratio): 2.16; tissue to tissue ratio ([2]; tumor and pancreas, non-blocked, n = 3, read-out: Tumor-to-pancreas ratio): 0.51 ± 0.03; tissue uptake at 3 h ([2]; blood, blocked with 150 nmol unlabeled NeoB, n = 1, read-out: Blood uptake): 7.31 %ID/g; tissue uptake at 3 h ([2]; blood, non-blocked, n = 3, read-out: Blood uptake): 7.83 ± 0.84 %ID/g; tissue uptake at 3 h ([2]; bone, blocked with 150 nmol unlabeled NeoB, n = 1, read-out: Bone uptake): 1.87 %ID/g; tissue uptake at 3 h ([2]; bone, non-blocked, n = 3, read-out: Bone uptake): 2.03 ± 0.89 %ID/g; tissue uptake at 3 h ([2]; brain, blocked with 150 nmol unlabeled NeoB, n = 1, read-out: Brain uptake): 0.2 %ID/g; tissue uptake at 3 h ([2]; brain, non-blocked, n = 3, read-out: Brain uptake): 0.2 ± 0.03 %ID/g; tissue uptake at 3 h ([2]; cecum, blocked with 150 nmol unlabeled NeoB, n = 1, read-out: Cecum uptake): 2.35 %ID/g; tissue uptake at 3 h ([2]; cecum, non-blocked, n = 3, read-out: Cecum uptake): 3.73 ± 0.4 %ID/g; tissue uptake at 3 h ([2]; heart, blocked with 150 nmol unlabeled NeoB, n = 1, read-out: Heart uptake): 2.24 %ID/g; tissue uptake at 3 h ([2]; heart, non-blocked, n = 3, read-out: Heart uptake): 2.39 ± 0.23 %ID/g; tissue uptake at 3 h ([2]; kidneys, blocked with 150 nmol unlabeled NeoB, n = 1, read-out: Kidneys uptake): 17.1 %ID/g; tissue uptake at 3 h ([2]; kidneys, non-blocked, n = 3, read-out: Kidneys uptake): 24.9 ± 2.78 %ID/g; tissue uptake at 3 h ([2]; large intestine, blocked with 150 nmol unlabeled NeoB, n = 1, read-out: Large intestine uptake): 2.06 %ID/g; tissue uptake at 3 h ([2]; large intestine, non-blocked, n = 3, read-out: Large intestine uptake): 3.88 ± 0.4 %ID/g; tissue uptake at 3 h ([2]; liver, blocked with 150 nmol unlabeled NeoB, n = 1, read-out: Liver uptake): 20 %ID/g; tissue uptake at 3 h ([2]; liver, non-blocked, n = 3, read-out: Liver uptake): 15.3 ± 0.43 %ID/g; tissue uptake at 3 h ([2]; lungs, blocked with 150 nmol unlabeled NeoB, n = 1, read-out: Lungs uptake): 16.1 %ID/g; tissue uptake at 3 h ([2]; lungs, non-blocked, n = 3, read-out: Lungs uptake): 6.51 ± 1.15 %ID/g; tissue uptake at 3 h ([2]; muscle, blocked with 150 nmol unlabeled NeoB, n = 1, read-out: Muscle uptake): 1.04 %ID/g; tissue uptake at 3 h ([2]; muscle, non-blocked, n = 3, read-out: Muscle uptake): 0.96 ± 0.16 %ID/g; tissue uptake at 3 h ([2]; pancreas, blocked with 150 nmol unlabeled NeoB, n = 1, read-out: Pancreas uptake): 1.26 %ID/g; tissue uptake at 3 h ([2]; pancreas, non-blocked, n = 3, read-out: Pancreas uptake): 16.6 ± 1.41 %ID/g; tissue uptake at 3 h ([2]; prostate, blocked with 150 nmol unlabeled NeoB, n = 1, read-out: Prostate uptake): 4.36 %ID/g; tissue uptake at 3 h ([2]; prostate, non-blocked, n = 3, read-out: Prostate uptake): 3.56 ± 1.62 %ID/g; tissue uptake at 3 h ([2]; small intestine, blocked with 150 nmol unlabeled NeoB, n = 1, read-out: Small intestine uptake): 1.45 %ID/g
